US20220281976A1 (Alector, published 2022)
Positions count from the first letter of the chain named.

B1: C-1 (antibody, V domains shown)
VH: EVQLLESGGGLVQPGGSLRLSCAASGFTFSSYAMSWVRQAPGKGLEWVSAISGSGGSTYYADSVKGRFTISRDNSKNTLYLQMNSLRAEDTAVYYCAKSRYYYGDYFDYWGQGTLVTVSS
VL: EIVLTQSPATLSLSPGERATLSCRASQSVSSYLAWYQQKPGQAPRLLIYDASNRATGIPARFSGSGSGTDFTLTISSLEPEDFAVYYCQQYYFWPLTFGGGTKVEIK
notes: full-length human IgG1
B2: C-63 (antibody, V domains shown)
VH: QVQLVQSGAEVKKPGSSVKVSCKASGGTFSSYAISWVRQAPGQGLEWMGSIIPIFGTANYAQKFQGRVTITADESTSTAYMELSSLRSEDTAVYYCARDLGGQYYGSHHYWGQGTLVTVSS
VL: B1 VL with L13V, S30G, Y32N, D50G, N53T, D70E, E79Q, P80S, Y92N, F93A
notes: human IgG1
B3: C-62 (antibody, V domains shown)
VH: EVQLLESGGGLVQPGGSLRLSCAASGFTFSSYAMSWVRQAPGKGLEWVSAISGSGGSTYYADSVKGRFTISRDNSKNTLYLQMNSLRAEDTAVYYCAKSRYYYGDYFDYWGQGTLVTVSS
VL: EIVMTQSPATLSVSPGERATLSCRASQSVSSNLAWYQQKPGQAPRLLIYGASTRATGIPARFSGSGSGTEFTLTISSLQSEDFAVYYCQQFSNWPLTFGGGTKVEIK
notes: human IgG1
B4: C-39 (antibody, V domains shown)
VH: QLQLQESGPGLVKPSETLSLTCTVSGGSISSSSYYWGWIRQPPGKGLEWIGSIYYSGSTYYNPSLKSRVTISVDTSKNQFSLKLSSVTAADTAVYYCAREGVRGMDVWGQGTTVTVSS
VL: EIVLTQSPGTLSLSPGERATLSCRASQSVSSSYLAWYQQKPGQAPRLLIYGASSRATGIPDRFSGSGSGTDFTLTISRLEPEDFAVYYCQQFAFLPPTFGGGTKVEIK
notes: human IgG1
B5: C-37 (antibody, V domains shown)
VH: QLQLQESGPGLVKPSETLSLTCTVSGGSISSSSYYWGWIRQPPGKGLEWIGSISYSGSTYYNPSLKSRVTISVDTSKNQFSLKLSSVTAADTAVYYCAREHRAADAGSNVWGQGTMVTVSS
VL: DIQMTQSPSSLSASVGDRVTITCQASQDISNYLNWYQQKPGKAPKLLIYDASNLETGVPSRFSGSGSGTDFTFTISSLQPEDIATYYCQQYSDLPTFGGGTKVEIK
notes: human IgG1
B6: C-67 (antibody, V domains shown)
VH: B5 VH with S54Y, H101V, R102S, A103G, A104T, D105R, A106H, S108M, N109D, M116T
VL: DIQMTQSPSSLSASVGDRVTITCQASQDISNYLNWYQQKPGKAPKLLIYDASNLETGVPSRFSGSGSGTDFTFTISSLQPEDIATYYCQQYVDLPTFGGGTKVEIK
notes: human IgG1
B7: C-38 (antibody, V domains shown)
VH: QLQLQESGPGLVKPSETLSLTCTVSGGSISSSSYYWGWIRQPPGKGLEWIGSIYYSGSTYYNPSLKSRVTISVDTSKNQFSLKLSSVTAADTAVYYCAREATAAADHPGMDVWGQGTTVTVSS
VL: DIQMTQSPSSLSASVGDRVTITCQASQDITNYLNWYQQKPGKAPKLLIYDASNLETGVPSRFSGSRSGTDFTFTISSLQPEDIATYYCQQYHDFPTFGGGTKVEIK
notes: human IgG1
B8: C-40 (antibody, V domains shown)
VH: EVQLVESGGGLVQPGGSLRLSCAASGFTFSSYWMSWVRQAPGKGLEWVANIKQDGSEKYYVDSVKGRFTISRDNAKNSLYLQMNSLRAEDTAVYYCAREGGYVGHGMDVWGQGTTVTVSS
VL: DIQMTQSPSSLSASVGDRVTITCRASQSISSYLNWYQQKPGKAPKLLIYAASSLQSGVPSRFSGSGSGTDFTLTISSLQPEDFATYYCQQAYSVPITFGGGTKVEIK
notes: human IgG1

How the values were obtained:
[1] = molecular target: T1, human CD33 Fc fusion protein (human, UniProt P20138 18-259); test: ForteBio BLI or MSD-SET, IgG, avid;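 also: Anti-CD33 IgG affinity by BLI, IgG captured on AHQ sensors with antigen in solution and a one-to-one kinetic fit, or by MSD solution equilibrium titration with quadratic fit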
T1 construct: also called hCD33-Fc; human CD33/Fc chimera (R&D Systems)

human CD33 [2] = molecular target: T2, human CD33 (human, UniProt P20138 18-364); test: flow cytometry, human primary monocytes; set-up: reference not given here;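 also: binding of anti-CD33 antibodies at 10 ug/ml to human primary monocytes, 1 h on ice, detected by PE-labelled secondary antibody, flow cytometry readout as mean fluorescence intensity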
T2 construct: CD33 on human primary dendritic cells, macrophages, monocytes and T cells and on CHO cells expressing recombinant human CD33; also called Siglec-3; hCD33

[3] = molecular target: T3, human monomeric His tagged CD33 protein (human, UniProt P20138 18-259); test: ForteBio BLI or MSD-SET, IgG, monomeric antigen;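 also: BLI: antibodies captured on AHQ sensors, 100 nM antigen association 5 min, dissociation 5 min, 1:1 fit. MSD-SET: antigen fixed at 50 pM, antibody titrated, quadratic fit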
T3 construct: also called hCD33-His

[4] = molecular target: T1, human CD33 Fc fusion protein; test: RBC adhesion to plate-bound CD33-Fc; antibody 0.5 ug/ml;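 also: Plate-coated CD33-Fc preincubated 1 h with antibody, then red blood cells added for 1 h at room temperature, adherent cells lysed and quantified via peroxidase activity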
human CD33 [5] = molecular target: T2, human CD33; test: flow cytometry, human primary T cells;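 also: binding of anti-CD33 antibodies at 10 ug/ml to human primary T cells, 1 h on ice, detected with PE-labelled secondary antibody, read as flow cytometry MFI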
Description: (§1) Initial characterization of CD33 antibodies involved determining their ability to bind CD33 expressed on a CHO cell line, on human primary monocytes, human primary macrophages, human primary dendritic cells, and on human primary T cells. Cells were harvested, plated at 10⁶/ml in a 96 well plate, and incubated in 100 ul PBS containing 2% FBS, 2 mM EDTA and 10 ug/ml Mab and Fc blocking reagent for 1 hour in ice. Cells were washed twice and incubated in 100 ul PBS containing 2% FBS, 2 mM EDTA and 5 ug/ml PE-conjugated secondary antibody for 30 minutes on ice. Cells were washed twice in cold PBS and analyze by flow cytometry on a BD FACS Canto. Data analysis and calculation of MFI values was performed with FlowJo (TreeStar) software version 10.0.7.

human CD33 [6] = molecular target: T2, human CD33; test: flow cytometry, human primary macrophages;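 also: binding of CD33 antibodies at 10 µg/ml to human primary macrophages, 1 h on ice, detected with PE-labelled secondary antibody by flow cytometry, reported as MFI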
human CD33 [7] = molecular target: T2, human CD33; test: cell-based or functional assay
[8] = molecular target: T4, mouse CD33 Fc fusion protein (mouse, UniProt Q63994 18-240, limits assumed); test: ForteBio BLI or MSD-SET
T4 construct: also called mCD33-Fc
T4 sequence: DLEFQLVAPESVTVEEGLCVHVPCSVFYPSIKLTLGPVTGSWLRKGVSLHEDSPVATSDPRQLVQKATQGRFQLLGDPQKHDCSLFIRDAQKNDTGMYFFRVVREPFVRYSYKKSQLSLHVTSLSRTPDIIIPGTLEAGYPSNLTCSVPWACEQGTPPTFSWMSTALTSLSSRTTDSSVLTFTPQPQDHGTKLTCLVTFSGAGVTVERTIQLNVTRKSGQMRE

human CD33 [9] = molecular target: T2, human CD33; test: flow cytometry, human primary dendritic cells;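 also: binding of anti-CD33 antibodies (10 ug/ml, 1 h on ice) to human primary dendritic cells, detected with a PE-labelled secondary antibody, reported as flow cytometry MFI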
Description: as §1

[10] = molecular target: T1, human CD33 Fc fusion protein; test: RBC adhesion to plate-bound CD33-Fc; antibody 1.0 ug/ml;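 also: red blood cells adhering to plate-coated CD33-Fc after 1 h antibody pretreatment, then 1 h at room temperature, bound cells read as peroxidase activity after lysis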
Description: Briefly, 5 ug/ml CD33-Fc was coated overnight at RT in 96 well Immunolon plates, then washed with PBS, blocked for one hour with binding buffer (PBS containing %0.25 BSA 1 mM CaCl₂). CD33 antibodies (0.5 ug/ml or 1.0 ug/ml) or Fabs (25 ug/ml) were bound for one hour at RT with gentle rocking. After removal of unbound antibody, red blood cells were added to each well at a concentration of 3.0×10⁶ cells per ml and incubated at RT for one hour. Unbound RBCs were then carefully washed off 3× with PBS, and water was added to each well for hypotonic lysis of bound RBCs. The plate was transferred to −80° C. for 10 minutes, followed by 37° C. for 15 minutes. Bound RBCs were detected by peroxidase activity, followed by 2N sulfuric acid to stop the reaction.

T3 sequence (P20138 18-259 limits assumed): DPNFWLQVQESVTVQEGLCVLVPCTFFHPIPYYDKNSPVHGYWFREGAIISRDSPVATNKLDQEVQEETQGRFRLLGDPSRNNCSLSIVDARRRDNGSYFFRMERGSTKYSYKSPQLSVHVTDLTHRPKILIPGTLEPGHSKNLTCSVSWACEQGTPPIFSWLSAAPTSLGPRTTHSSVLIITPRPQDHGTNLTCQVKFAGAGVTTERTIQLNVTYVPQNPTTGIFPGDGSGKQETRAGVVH
T1 sequence (P20138 18-259 limits assumed): as above
T2 sequence (P20138 18-364): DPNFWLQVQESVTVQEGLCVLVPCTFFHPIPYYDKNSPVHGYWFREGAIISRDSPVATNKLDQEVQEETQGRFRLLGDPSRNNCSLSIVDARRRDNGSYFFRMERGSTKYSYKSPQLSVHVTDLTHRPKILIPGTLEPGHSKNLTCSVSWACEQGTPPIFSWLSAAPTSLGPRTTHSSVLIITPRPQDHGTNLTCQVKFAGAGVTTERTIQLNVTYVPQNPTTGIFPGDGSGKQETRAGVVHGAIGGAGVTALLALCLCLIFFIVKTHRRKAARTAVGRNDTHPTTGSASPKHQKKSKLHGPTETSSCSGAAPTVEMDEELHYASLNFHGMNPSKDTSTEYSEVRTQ

| Binder | Kd [1] | Monocyte MFI (human CD33 [2]) | Kd [3] | Percent RBC Binding to CD33 [4] | T cell MFI (human CD33 [5]) | Macrophage MFI (human CD33 [6]) | Percent CD33 Surface Expression, DC % CD33 (human CD33 [7]) | Percent CD33 Surface Expression, Macrophage % CD33 (human CD33 [7]) | Percent CD33 Surface Expression, Monocyte % CD33 (human CD33 [7]) | binding result [8] | DC MFI (human CD33 [9]) | Percent RBC Binding to CD33 [10] |
| --- | --- | --- | --- | --- | --- | --- | --- | --- | --- | --- | --- | --- |
| B1 | 2.53 nM | 177 | 9.69 nM | 93.2% | 461 | 924 | 80.9% | 94.4% | 100% | no binding (tested: 100 nM) | 1440 | 91.5% |
| B2 | 4.01 nM | 117 | – | 17.1% | 28.8 | 872 | 56.8% | – | 75.6% | no binding (tested: 100 nM) | 1200 | 5.66% |
| B3 | 4.07 nM | 197 | 23.6 nM | 95.7% | 96.4 | 520 | 78.4% | – | 87.4% | no binding (tested: 100 nM) | 1660 | 84% |
| B4 | 2.06 nM | 181 | 9.97 nM | 12.5% | 1210 | 802 | 22.8% | 46.5% | 27.2% | no binding (tested: 100 nM) | 2000 | 5.11% |
| B5 | 0.409 nM | 203 | 2.72 nM | 11% | 213 | 952 | 19% | 55.3% | 32.2% | no binding (tested: 100 nM) | 1840 | 5.6% |
| B6 | 1.19 nM | 151 | 5.33 nM | 22.9% | 209 | 831 | 17% | 51% | 23.8% | no binding (tested: 100 nM) | 1420 | 10.7% |
| B7 | 1.28 nM | 166 | 5.25 nM | 15.6% | 267 | 904 | 17.9% | 49.1% | 27.6% | no binding (tested: 100 nM) | 1740 | 10.3% |
| B8 | 1.86 nM | 76 | 10.6 nM | 19.7% | 210 | 663 | 17.8% | 35.2% | 24.2% | no binding (tested: 100 nM) | 1470 | 12.1% |
